Data from article PMC3001329 (Investigative ophthalmology & visual science, 2009).

Biological target: the molecule itself
Experiment: SEC-MALS

B1: recombinant bovine αA-crystallin Y118D mutant (natural protein)
chain: MDIAIQHPWFKRTLGPFYPSRLFDQFFGEGLFEYDLLPFLSSTISPYYRQSLFRTVLDSGISEVRSDRDKFVIFLDVKHFSPEDLTVKVQEDFVEIHGKHNERQDDHGYISREFHRRDRLPSNVDQSALSCSLSADGMLTFSGPKIPSGVDAGHSERAIPVSREEKPSSAPSS
stoichiometry N: 75 subunits
